Source: patent US20140235701, “NGF APTAMER AND APPLICATION THEREOF” (RIBOMIC INC., published 2014)

What was measured:
Settings in all cases: tags: R&D Systems; chain copies: 2
[1] = target: T1, NGF (nerve growth factor) (Homo sapiens, UniProt P01138 P01138:122-241); test: cell_activity; neurite; TF-1 0.042
[2] = target: T1, NGF (nerve growth factor); test: cell_activity; neurite; TF-1 0.363
[3] = target: T1, NGF (nerve growth factor); test: cell_activity; neurite; TF-1 0.039
Description: (§1) With the neurite length per cell obtained by the addition of NGF alone as inhibitory activity 0%, and that of the cell obtained by NGF free culture for 2 days as inhibitory activity 100%, the inhibitory activity of the aptamer was calculated from the neurite length per cell obtained by culturing with the addition of NGF and the aptamer in mixture.
(§2) Two NGF receptor (human TrkA and human p75) genes were introduced into TF-1 cells (ATCC Number: CRL-2003), which is a human erythroleukemic cell line, by using a retrovirus vector to give cells that highly express two receptors simultaneously and stably. The cells were suspended in an RPMI-1640 medium containing 20% fetal bovine serum, and seeded in a white 96 well flat-bottom plate at 1000 cells (50 μL) per well. […] With the amount of luminescence per well obtained by the addition of NGF alone and culture of the cells for 3 days as inhibitory activity 0%, and that of the well obtained by NGF free culture for 3 days as inhibitory activity 100%, the inhibitory activity of the aptamer was calculated from the amount of luminescence per well obtained by culturing with the addition of NGF and the aptamer in mixture.

[4] = target: T1, NGF (nerve growth factor); test: cell_activity; neurite; TF-1 0.081
[5] = target: T1, NGF (nerve growth factor); test: cell_activity; neurite; TF-1 0.266
[6] = target: T1, NGF (nerve growth factor); test: cell_activity; neurite; TF-1 0.311
Description: as §1, §2

[7] = target: T1, NGF (nerve growth factor); test: cell_activity; neurite; TF-1 0.024
[8] = target: T1, NGF (nerve growth factor); test: cell_activity; neurite; TF-1 0.048
[9] = target: T1, NGF (nerve growth factor); test: cell_activity; neurite; TF-1 0.183
NT-3 (neurotrophin-3) = target: T2, NT-3 (neurotrophin-3) (Homo sapiens, UniProt P20783 P20783:139-257); test: SPR; scarcely bound
T2 sequence: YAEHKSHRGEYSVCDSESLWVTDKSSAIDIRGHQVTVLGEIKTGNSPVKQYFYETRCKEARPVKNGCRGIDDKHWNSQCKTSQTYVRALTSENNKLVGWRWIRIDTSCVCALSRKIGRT
Description: (§3) The binding activity of these shortened forms to NGF and NT-3 was measured by the surface plasmon resonance method. For the measurement method, BIAcore2000 manufactured by BIAcore was used and CM5 reactive with amino group was used as a sensorchip, as shown in Example 1. The protein was immobilized in the same manner as in Example 1 by using ethyl-3-carbodiimide hydrochloride and N-hydroxysuccinimide. […] After protein immobilization, blocking with ethanolamine-HCl was performed. The amount of immobilized NGF and NT-3 was 3,000-4,000 RU and 3,000-5,000 RU, respectively. The aptamer for an analyte was prepared to 0.15 μM-0.5 μM. The running buffer and regeneration solution were the same as those in Example 1. NT-3 was immobilized on FC2, and NGF on FC3, and the final sensorgram was obtained by subtracting the results of FC1.
(§4) Then, the aptamers were subjected to shortening to 40 mer in the same manner as with consensus secondary structure 1. […] NT-4 was measured in the same manner as in NT-3.
(§5) The shortened sequences were measured for the binding to NGF, NT-3, NT-4 by the surface plasmon resonance method. The measurement was performed in the same manner as in Example 13.

NT-4 (neurotrophin-4) = target: T3, NT-4 (neurotrophin-4) (Homo sapiens, UniProt P34130 P34130:81-210); test: SPR; scarcely bound
T3 sequence: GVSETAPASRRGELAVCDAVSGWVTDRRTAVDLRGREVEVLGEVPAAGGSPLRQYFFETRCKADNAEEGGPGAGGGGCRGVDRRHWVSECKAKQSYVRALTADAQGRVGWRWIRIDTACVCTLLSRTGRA
Description: as §3, §4, §5

[10] = target: T1, NGF (nerve growth factor); test: cell_activity; neurite; TF-1 0.056
[11] = target: T1, NGF (nerve growth factor); test: cell_activity; neurite; TF-1 0.016
[12] = target: T1, NGF (nerve growth factor); test: cell_activity; neurite; TF-1 0.047
[13] = target: T1, NGF (nerve growth factor); test: cell_activity; neurite; TF-1 0.015
[14] = target: T1, NGF (nerve growth factor); test: cell_activity; TF-1 proliferation
Description: as §2

[15] = target: T1, NGF (nerve growth factor); test: cell_activity; neurite; TF-1 >10
[16] = target: T1, NGF (nerve growth factor); test: cell_activity; neurite; TF-1 0.193
[17] = target: T1, NGF (nerve growth factor); test: cell_activity; neurite; TF-1 0.296
[18] = target: T1, NGF (nerve growth factor); test: cell_activity; neurite; TF-1 0.455
[19] = target: T1, NGF (nerve growth factor); test: cell_activity; neurite; TF-1 0.322

T1 sequence (P01138 122-241, one chain of several): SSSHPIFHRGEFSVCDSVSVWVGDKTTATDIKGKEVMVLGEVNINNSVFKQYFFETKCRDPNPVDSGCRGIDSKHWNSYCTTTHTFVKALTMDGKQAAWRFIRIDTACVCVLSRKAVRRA

GGGUCCUGGAUAAGAGUUUCCGUCUCGUAUCCUGUUACCC (ssRNA, as 82(25) except dU36) [SEQ ID NO: 82(41)]
IC50 [1]: 0.084 nM

GGGUCCUGUCUAAGAGUUUCCGUCUCGUAGACUGUUACCC (ssRNA, 2'-F C/U, dA, 2'-OH G) [SEQ ID NO: 111]
IC50 [2]: 0.252 nM

GGGUCCUGGAUAAGAGTUUCCGUCUCGUAUCCTGUUACCC (ssRNA, as 82(25) except dT17,dT33,dU36, 2'-OMe A37) [SEQ ID NO: 165]
IC50 [3]: 0.139 nM

GGGUCCUGGAUAAGAGUUUCCGUCUCGUAUCCUGUUACCC (ssRNA, as 82(48) without 5' idT; PS between A12 and A13) [SEQ ID NO: 82(60)]
IC50 [4]: 0.034 nM

GGGUCCUGGAUAAGAGUUUCCGUCUCGUAUCCUGUUACCC (ssRNA, as 82(48) without 5' idT; PS between G34 and U35) [SEQ ID NO: 82(63)]
IC50 [5]: 0.046 nM

GGGUCCUGAGUAAGAGUUUCCGUCUCAUACUCUGUUACCC (ssRNA, 2'-F C/U, dA, 2'-OH G) [SEQ ID NO: 85]
IC50 [6]: < 0.3 nM

GGGUCCUGGAUAAGAGUUUCCGUCUCGUAUCCUGUUACCC (ssRNA, as 82(25) except 2'-OMe A10) [SEQ ID NO: 82(45)]
IC50 [7]: 0.037 nM

GGGUCCUGGAUAAGAGTUUCCGUCUCGUAUCCTGUUACCC (ssRNA, as 82(25) except dU7,dT17,dT33) [SEQ ID NO: 164]
IC50 [8]: 0.132 nM

GGGUCCUGUCUAAGAGUUUCCGUCUCGUAGACUGUUACCC (ssRNA, 2'-F C/U, dA, 2'-OH G) [SEQ ID NO: 115]
IC50 [9]: 0.298 nM | binding result (NT-3 (neurotrophin-3)): no binding | binding result (NT-4 (neurotrophin-4)): no binding

GGGUCCUGGAUAAGAGUUUCCGUCUCGUAUCCUGUUACCC (ssRNA, as 82(25) except 2'-OMe A10,A15,A29,A37) [SEQ ID NO: 82(48)]
IC50 [10]: 0.252 nM

B1: SEQ ID NO: 78(2) (ssRNA)
RNA: GGGUCCUGGCCAAGAGUUUCCGUCUCGUGGUCUGUUACCC
modifications: 2'-OMe G (G8,G34 2'-OH), dA, 2'-F C/U except 2'-OMe U4,C6,C21,U23,C26,U28,U31,C32,U35,C38-40; 5',3' idT
IC50 [11]: 0.045 nM

GGGUCCUGGAUAAGAGTUUCCGUCUCGUAUCCTGUUACCC (ssRNA, as 82(25) except dT17,dT33,dU36) [SEQ ID NO: 163]
IC50 [12]: 0.113 nM

B2: SEQ ID NO: 78(3) (ssRNA)
RNA: B1 RNA
modifications: 2'-OMe G (G8,G34 2'-OH), dA, 2'-F C/U except 2'-OMe U4,C6,C10,C11,C21,U23,C26,U28,C32,U35,C38-40; 5',3' idT
IC50 [13]: 0.045 nM

GGGUCCUGCUGCGGAGUUUCCGUCUCGGUGGCUGUUACCC (ssRNA, 2'-OMe G (G8,G34 2'-OH), dA, 2'-F C/U; 5',3' idT) [SEQ ID NO: 62(1)]
IC50 [14]: 0.49 nM

GGGUCCUGCUGCGUAGUUUCCUUCUGCGUGGUUGUUACCC (ssRNA, 2'-F C/U, dA, 2'-OH G) [SEQ ID NO: 86]
IC50 [15]: 0.834 nM

GGGUCCUGUUCAAGAGUUUCCGUCUCGUGGACUGUUACCC (ssRNA, 2'-F C/U, dA, 2'-OH G) [SEQ ID NO: 112]
IC50 [16]: 0.334 nM | binding result (NT-3 (neurotrophin-3)): no binding | binding result (NT-4 (neurotrophin-4)): no binding

GGGUCCUGACAAAGAGUUUCCGUCUCGUUGUCUGUUACCC (ssRNA, 2'-F C/U, dA, 2'-OH G) [SEQ ID NO: 114]
IC50 [17]: 0.363 nM | binding result (NT-3 (neurotrophin-3)): no binding | binding result (NT-4 (neurotrophin-4)): no binding

GGGUCCUGUUGAAGAGUUUCCGUCUCGUCAACUGUUACCC (ssRNA, 2'-F C/U, dA, 2'-OH G) [SEQ ID NO: 117]
IC50 [18]: 0.394 nM | binding result (NT-3 (neurotrophin-3)): no binding | binding result (NT-4 (neurotrophin-4)): no binding

GGGUCCUGUUCAAGAGUUUCCGUCUCGUGAACUGUUACCC (ssRNA, 2'-F C/U, dA, 2'-OH G) [SEQ ID NO: 116]
IC50 [19]: 0.411 nM | binding result (NT-3 (neurotrophin-3)): no binding
